In patent US20260242478A1 (published 2026):

Assays:
[1] = target: T1, Anti-CD28 Fab (SEQ ID NOs: 696, 697); assay: phage ELISA on plate-bound anti-CD28 Fab, wells pre-incubated with CD28 antigen as competitor
T1 construct: Biotinylated and captured on neutravidin coated plates in the phage ELISA
T1 sequence (VH, as listed by the source, chain 1 of 2): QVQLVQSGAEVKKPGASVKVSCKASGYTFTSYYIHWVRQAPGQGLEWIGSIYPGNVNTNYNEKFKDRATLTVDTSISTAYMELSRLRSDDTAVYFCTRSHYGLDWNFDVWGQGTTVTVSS
T1 sequence (VL, as listed by the source, chain 2 of 2): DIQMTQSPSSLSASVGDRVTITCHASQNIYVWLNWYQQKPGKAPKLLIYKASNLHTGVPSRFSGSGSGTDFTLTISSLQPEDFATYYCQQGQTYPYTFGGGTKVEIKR
Experimental: (§1) After panning, phage infected bacteria were plated out and colonies picked into 96 well blocks. Clonal phage was then amplified and separated from bacterial cells via centrifugation.
(§2) Clonal phage were harvested as crude supematants and screened via standard ELISAs. […] Prior to the addition of clonal phage, wells were incubated with blocking buffer and CD28 antigen or blocking buffer alone. Without washing or aspirating, clonal phage supematants were then added to the wells and incubated for a short time. Wells were then washed followed by detection of bound phage using a horse radish conjugated anti-M13 antibody. Clonal phage of interest were then sent for sequence analysis.

[2] = target: T1, Anti-CD28 Fab (SEQ ID NOs: 696, 697); assay: phage ELISA; biotinylated anti-CD28 Fab on neutravidin plate, clonal phage supernatant, anti-M13 HRP detection;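 note: crude supernatants of single phage clones picked after panning were screened for binding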
[3] = target: Anti-CD28 Fab (SEQ ID NOs: 696, 697); assay: phage ELISA, biotinylated anti-CD28 Fab on neutravidin plate, anti-M13 HRP detection
Target sequence in this assay (VH, as listed by the source, chain 1 of 2): as the sequence (VH, as listed by the source, chain 1 of 2) above
Target sequence in this assay (VL, as listed by the source, chain 2 of 2): as the sequence (VL, as listed by the source, chain 2 of 2) above
Experimental: as §1, §2

[4] = target: Anti-CD28 Fab (SEQ ID NOs: 696, 697); assay: phage ELISA on captured anti-CD28 Fab, wells pre-incubated with CD28 antigen as competitor;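 note: crude clonal phage supernatants added without washing, bound phage read out by HRP-coupled anti-M13 antibody, reference wells given blocking buffer only instead of CD28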
Target sequence in this assay (VH, as listed by the source, chain 1 of 2): as the sequence (VH, as listed by the source, chain 1 of 2) above
Target sequence in this assay (VL, as listed by the source, chain 2 of 2): as the sequence (VL, as listed by the source, chain 2 of 2) above
Experimental: as §1, §2

[5] = target: T2, Anti-CD28 Fab (SEQ ID NOs: 696, 697) (biotinylated (site not stated)); assay: phage binding ELISA; biotinylated anti-CD28 Fab on neutravidin plates, clonal phage supernatant, anti-M13 HRP detection
T2 sequence (VH, as listed by the source, chain 1 of 2): as the sequence (VH, as listed by the source, chain 1 of 2) above
T2 sequence (VL, as listed by the source, chain 2 of 2): as the sequence (VL, as listed by the source, chain 2 of 2) above

[6] = target: T2, Anti-CD28 Fab (SEQ ID NOs: 696, 697); assay: phage binding ELISA; Fab-coated wells pre-incubated with CD28 antigen as competitor, then clonal phage, anti-M13 HRP detection
Experimental: as §1, §2

[7] = target: T3, Anti-CD28 Fab (SEQ ID NOs: 696, 697); assay: phage binding ELISA on anti-CD28 Fab plate pre-incubated with CD28 antigen as competitor; anti-M13 HRP detection
T3 construct: Biotinylated and captured on neutravidin coated plates in the phage ELISA
T3 sequence (VH, as listed by the source, chain 1 of 2): as the sequence (VH, as listed by the source, chain 1 of 2) above
T3 sequence (VL, as listed by the source, chain 2 of 2): as the sequence (VL, as listed by the source, chain 2 of 2) above
Experimental: as §1, §2

[8] = target: T3, Anti-CD28 Fab (SEQ ID NOs: 696, 697); assay: phage binding ELISA; biotinylated anti-CD28 Fab on neutravidin plate, clonal phage supernatant, anti-M13 HRP detection

## YCDGHAPQYMGKCL (Clonal phage of the Peptide-87 library) [Phage-677]
[1]
  Anti-CD28 Fab signal in the presence of CD28 (phage binding ELISA): 0.08
[2]
  Anti-CD28 Fab signal (phage binding ELISA): 2.06

B1: Phage-637 (peptide)
peptide: YCDGHQPEYMAKCL
notes: Clonal phage displaying the peptide; not shown: fused to pIII of the bacteriophage
[3]
  Anti-CD28 Fab signal (phage binding ELISA): 2.14
[4]
  Anti-CD28 Fab signal in the presence of CD28 (phage binding ELISA): 0.07

## YCDGHSAEYMSKCL (tested as crude phage supernatant) [Phage-654]
[5]
  Anti-CD28 Fab signal (phage binding ELISA): 2.1
[6]
  Anti-CD28 Fab signal in the presence of CD28 (phage binding ELISA): 0.06

B2: Phage-667 (peptide, not shown: large carriers)
peptide: YCEGHSMQHMAKCL
notes: Clonal phage supernatant of the Peptide-87 library
[7]
  Anti-CD28 Fab signal in the presence of CD28 (phage binding ELISA): 0.08
[8]
  Anti-CD28 Fab signal (phage binding ELISA): 2.07

## YCAGHLPQYMEKCM (tested as crude phage supernatant) [Phage-656]
[5]
  Anti-CD28 Fab signal (phage binding ELISA): 2.09
[6]
  Anti-CD28 Fab signal in the presence of CD28 (phage binding ELISA): 0.08

## YCDGHELRYMAKCL (Clonal phage of the Peptide-87 library) [Phage-671]
[1]
  Anti-CD28 Fab signal in the presence of CD28 (phage binding ELISA): 0.07
[2]
  Anti-CD28 Fab signal (phage binding ELISA): 2.07

B3: Phage-639 (peptide)
peptide: YCDGHIPIYMSKCL
notes: as for B1
[3]
  Anti-CD28 Fab signal (phage binding ELISA): 2.13
[4]
  Anti-CD28 Fab signal in the presence of CD28 (phage binding ELISA): 0.08

B4: Phage-657 (peptide, not shown: large carriers)
peptide: YCAGHLPEHIGKCL
notes: as for B2
[7]
  Anti-CD28 Fab signal in the presence of CD28 (phage binding ELISA): 0.07
[8]
  Anti-CD28 Fab signal (phage binding ELISA): 2.09

## YCEGHADIYMQKCL (Clonal phage of the Peptide-87 library) [Phage-675]
[1]
  Anti-CD28 Fab signal in the presence of CD28 (phage binding ELISA): 0.07
[2]
  Anti-CD28 Fab signal (phage binding ELISA): 2.06

## YCAGHTQEYMSKCL (tested as crude phage supernatant) [Phage-651]
[5]
  Anti-CD28 Fab signal (phage binding ELISA): 2.1
[6]
  Anti-CD28 Fab signal in the presence of CD28 (phage binding ELISA): 0.05

## YCEGHAPQYIQKCL (Clonal phage of the Peptide-87 library) [Phage-670]
[1]
  Anti-CD28 Fab signal in the presence of CD28 (phage binding ELISA): 0.07
[2]
  Anti-CD28 Fab signal (phage binding ELISA): 2.07

## YCEGHSPQYMQKCL (tested as crude phage supernatant) [Phage-652]
[5]
  Anti-CD28 Fab signal (phage binding ELISA): 2.1
[6]
  Anti-CD28 Fab signal in the presence of CD28 (phage binding ELISA): 0.06

B5: Phage-642 (peptide)
peptide: YCDGHSAEYMMKCL
notes: as for B1
[3]
  Anti-CD28 Fab signal (phage binding ELISA): 2.12
[4]
  Anti-CD28 Fab signal in the presence of CD28 (phage binding ELISA): 0.08

## YCDGHLEEYMAKCL (tested as crude phage supernatant) [Phage-648]
[5]
  Anti-CD28 Fab signal (phage binding ELISA): 2.11
[6]
  Anti-CD28 Fab signal in the presence of CD28 (phage binding ELISA): 0.09

## YCEGHSAEYMNKCL (Clonal phage of the Peptide-87 library) [Phage-676]
[1]
  Anti-CD28 Fab signal in the presence of CD28 (phage binding ELISA): 0.07
[2]
  Anti-CD28 Fab signal (phage binding ELISA): 2.06

## YCDGHVPQYMAKCL (tested as crude phage supernatant) [Phage-653]
[5]
  Anti-CD28 Fab signal (phage binding ELISA): 2.1
[6]
  Anti-CD28 Fab signal in the presence of CD28 (phage binding ELISA): 0.07

B6: Phage-661 (peptide, not shown: large carriers)
peptide: YCAGHLEIYMQKCL
notes: as for B2
[7]
  Anti-CD28 Fab signal in the presence of CD28 (phage binding ELISA): 0.08
[8]
  Anti-CD28 Fab signal (phage binding ELISA): 2.09

## YCSGHAPIYMAKCL (tested as crude phage supernatant) [Phage-650]
[5]
  Anti-CD28 Fab signal (phage binding ELISA): 2.1
[6]
  Anti-CD28 Fab signal in the presence of CD28 (phage binding ELISA): 0.07

B7: Phage-663 (peptide, not shown: large carriers)
peptide: YCEGHSAEYMWKCL
notes: as for B2
[7]
  Anti-CD28 Fab signal in the presence of CD28 (phage binding ELISA): 0.09
[8]
  Anti-CD28 Fab signal (phage binding ELISA): 2.08

B8: Phage-668 (peptide, not shown: large carriers)
peptide: YCDGHAQEFMSKCL
notes: as for B2
[7]
  Anti-CD28 Fab signal in the presence of CD28 (phage binding ELISA): 0.12
[8]
  Anti-CD28 Fab signal (phage binding ELISA): 2.07

B9: Phage-640 (peptide)
peptide: YCEGHLPQYLAKCL
notes: as for B1
[3]
  Anti-CD28 Fab signal (phage binding ELISA): 2.12
[4]
  Anti-CD28 Fab signal in the presence of CD28 (phage binding ELISA): 0.1

B10: Phage-664 (peptide, not shown: large carriers)
peptide: YCEGHAPEHMAKCL
notes: as for B2
[7]
  Anti-CD28 Fab signal in the presence of CD28 (phage binding ELISA): 0.1
[8]
  Anti-CD28 Fab signal (phage binding ELISA): 2.08

B11: Phage-669 (peptide, not shown: large carriers)
peptide: YCAGHLPEYIDKCL
notes: as for B2
[7]
  Anti-CD28 Fab signal in the presence of CD28 (phage binding ELISA): 0.08
[8]
  Anti-CD28 Fab signal (phage binding ELISA): 2.07

## YCEGHAPEYMMKCI (Clonal phage of the Peptide-87 library) [Phage-674]
[1]
  Anti-CD28 Fab signal in the presence of CD28 (phage binding ELISA): 0.06
[2]
  Anti-CD28 Fab signal (phage binding ELISA): 2.06

B12: Phage-643 (peptide)
peptide: YCEGHLPQYIPKCL
notes: as for B1
[3]
  Anti-CD28 Fab signal (phage binding ELISA): 2.12
[4]
  Anti-CD28 Fab signal in the presence of CD28 (phage binding ELISA): 0.07

B13: Phage-665 (peptide, not shown: large carriers)
peptide: YCDGHAEQYMEKCL
notes: as for B2
[7]
  Anti-CD28 Fab signal in the presence of CD28 (phage binding ELISA): 0.07
[8]
  Anti-CD28 Fab signal (phage binding ELISA): 2.08

B14: Phage-660 (peptide, not shown: large carriers)
peptide: YCSGHLPEYMEKCL
notes: as for B2
[7]
  Anti-CD28 Fab signal in the presence of CD28 (phage binding ELISA): 0.09
[8]
  Anti-CD28 Fab signal (phage binding ELISA): 2.09

B15: Phage-635 (peptide)
peptide: YCDGHSDEYMAKCL
notes: as for B1
[3]
  Anti-CD28 Fab signal (phage binding ELISA): 2.14
[4]
  Anti-CD28 Fab signal in the presence of CD28 (phage binding ELISA): 0.07

B16: Phage-638 (peptide)
peptide: YCAGHLPEYISKCL
notes: as for B1
[3]
  Anti-CD28 Fab signal (phage binding ELISA): 2.14
[4]
  Anti-CD28 Fab signal in the presence of CD28 (phage binding ELISA): 0.08

B17: Phage-662 (peptide, not shown: large carriers)
peptide: YCMGHLPQYMEKCL
notes: as for B2
[7]
  Anti-CD28 Fab signal in the presence of CD28 (phage binding ELISA): 0.08
[8]
  Anti-CD28 Fab signal (phage binding ELISA): 2.08

## YCDGHLPAYMAKCL (Clonal phage of the Peptide-87 library) [Phage-672]
[1]
  Anti-CD28 Fab signal in the presence of CD28 (phage binding ELISA): 0.12
[2]
  Anti-CD28 Fab signal (phage binding ELISA): 2.06

## YCQGHLPQYIAKCL (tested as crude phage supernatant) [Phage-655]
[5]
  Anti-CD28 Fab signal (phage binding ELISA): 2.09
[6]
  Anti-CD28 Fab signal in the presence of CD28 (phage binding ELISA): 0.08

## YCDGHMPEYMLKCL (tested as crude phage supernatant) [Phage-649]
[5]
  Anti-CD28 Fab signal (phage binding ELISA): 2.11
[6]
  Anti-CD28 Fab signal in the presence of CD28 (phage binding ELISA): 0.09

B18: Phage-659 (peptide, not shown: large carriers)
peptide: YCAGHSPEYMGKCM
notes: as for B2
[7]
  Anti-CD28 Fab signal in the presence of CD28 (phage binding ELISA): 0.06
[8]
  Anti-CD28 Fab signal (phage binding ELISA): 2.09

## YCDGHLPEYMHKCL (tested as crude phage supernatant) [Phage-647]
[5]
  Anti-CD28 Fab signal (phage binding ELISA): 2.11
[6]
  Anti-CD28 Fab signal in the presence of CD28 (phage binding ELISA): 0.11

## YCDGHAPQYMLKCL (tested as crude phage supernatant) [Phage-644]
[5]
  Anti-CD28 Fab signal (phage binding ELISA): 2.12
[6]
  Anti-CD28 Fab signal in the presence of CD28 (phage binding ELISA): 0.09

B19: Phage-636 (peptide)
peptide: YCEGHSLEYIGKCL
notes: as for B1
[3]
  Anti-CD28 Fab signal (phage binding ELISA): 2.14
[4]
  Anti-CD28 Fab signal in the presence of CD28 (phage binding ELISA): 0.06

B20: Phage-666 (peptide, not shown: large carriers)
peptide: YCEGHSPEYMSHCF
notes: as for B2
[7]
  Anti-CD28 Fab signal in the presence of CD28 (phage binding ELISA): 0.09
[8]
  Anti-CD28 Fab signal (phage binding ELISA): 2.08

B21: Phage-634 (peptide)
peptide: YCEGHSAEYMAKCL
notes: as for B1
[3]
  Anti-CD28 Fab signal (phage binding ELISA): 2.14
[4]
  Anti-CD28 Fab signal in the presence of CD28 (phage binding ELISA): 0.06

## YCEGHSDEYMLKCL (Clonal phage of the Peptide-87 library) [Phage-673]
[1]
  Anti-CD28 Fab signal in the presence of CD28 (phage binding ELISA): 0.07
[2]
  Anti-CD28 Fab signal (phage binding ELISA): 2.06

B22: Phage-658 (peptide, not shown: large carriers)
peptide: YCEGHTAEYLQKCL
notes: as for B2
[7]
  Anti-CD28 Fab signal in the presence of CD28 (phage binding ELISA): 0.1
[8]
  Anti-CD28 Fab signal (phage binding ELISA): 2.09

## YCMGHSEEYMQKCL (tested as crude phage supernatant) [Phage-646]
[5]
  Anti-CD28 Fab signal (phage binding ELISA): 2.11
[6]
  Anti-CD28 Fab signal in the presence of CD28 (phage binding ELISA): 0.07

## YCDGHLPVYMAKCL (tested as crude phage supernatant) [Phage-645]
[5]
  Anti-CD28 Fab signal (phage binding ELISA): 2.11
[6]
  Anti-CD28 Fab signal in the presence of CD28 (phage binding ELISA): 0.09

B23: Phage-641 (peptide)
peptide: YCAGHLPLYMEKCL
notes: as for B1
[3]
  Anti-CD28 Fab signal (phage binding ELISA): 2.12
[4]
  Anti-CD28 Fab signal in the presence of CD28 (phage binding ELISA): 0.06
